Assays:
biotinylated human PDL1 [1] = biological target: T1, biotinylated human PDL1 (human, UniProt Q9NZQ7 19-238, limits assumed, biotinylated); experiment: competition ELISA PD-1/PDL1
T1 construct: also called biotinylated PDL1
Method: (§1) Plates were blocked for 1 hour at room temperature by adding 300 μl of PBS with i%BSA and 0.2% tween (dilution buffer) to each well. Inhibitors were serially diluted in 3-fold steps to final concentrations ranging from 300 to 0.005 ng/ml in dilution buffer containing 1 ng/ml biotinylated human PDL1. The mixtures were pre-incubated for 1 hour at room temperature under gentle agitation on a rotating mixer (21 rpm) and added to the microplates after 3 wash cycles with 450 μl wash buffer per well. Plates were incubated for 1.5 hours at room temperature under gentle agitation, then 10 ng/ml streptavidin-polyHRP40 was added to each microplate well after three washes with 450 μl of wash buffer per well. After 1 h incubation at RT, plates were washed three times with 450 μl wash buffer and TMB substrate solution was added. The enzymatic reaction was stopped after 6 minutes by addition of 1 M HCl and absorbance was measured at 450 nm using 690 nm as a reference wavelength. For calculation of IC₅₀ values, a four-parameter logistic (4PL) curve fit was performed in Graph Pad Prism using reference subtracted values.

[2] = biological target: T2, CD137 on Jurkat NFkB reporter cells (human, UniProt Q07011 24-255); experiment: cell-based or functional assay
biotinylated human PDL1 [3] = biological target: T1, biotinylated human PDL1; experiment: competition ELISA B7.1/PDL1
Method: as §1, with “1% BSA” for “i%BSA”, “Inhibitors were serially diluted in 3-fold steps to final concentrations ranging from 300 to 0.005 ng/ml in dilution buffer containing 1 ng/ml biotinylated human PDL1.” left out

[4] = biological target: T2, CD137 on Jurkat NFkB reporter cells; experiment: cell-based or functional assay; remark: listed apart in the source
Fc tagged human CD137 = biological target: T3, Fc tagged human CD137 (human, UniProt Q07011 24-186); experiment: SPR
T3 construct: also called CD137-Fc chimeric protein
Method: (§2) Affinity to PDL1 of the different species was determined by SPR measurements using a Biacore T200 device (GE Healthcare). An antibody specific for the Fc region of human IgGs was immobilized on a sensor chip (CM5 sensor chip, GE Healthcare) by amine-coupling. For all formats, with the exception of the Fc containing Morrison formats, PDL1-Fc chimeric protein from different species were captured by the immobilized antibody.
(§3) Three-fold serial dilutions of the molecules specific for PDL1 (0.12-90 nM) were injected into the flow cells for three minutes and dissociation was monitored for 10 minutes. After each injection cycle, surfaces were regenerated with one injection of a 3 M MgCl₂ solution. The apparent dissociation (kd) and association (kₐ) rate constants and the apparent dissociation equilibrium constant (KD) were calculated using one-to-one Langmuir binding model. Affinity to CD137 of the different species was determined using the identical setup as for PDL1 with the exception that CD137-Fc chimeric protein from different species were captured by the immobilized antibody.

Fc tagged human PDL1 = biological target: T4, Fc tagged human PDL1 (human, UniProt Q9NZQ7 19-239); experiment: SPR
T4 construct: Bought (Sino Biological, cat. 10084-H02H); captured on the SPR chip; also called PDL1-Fc chimeric protein
Method: as §2, §3

human PDL1 on cells = human PDL1 on cells (human, UniProt Q9NZQ7 19-290); experiment: cell-based or functional assay
[5] = biological target: T5, mouse CD137-Fc chimeric protein (mouse, UniProt P20334 24-187, limits assumed); experiment: SPR
T5 sequence (looked up): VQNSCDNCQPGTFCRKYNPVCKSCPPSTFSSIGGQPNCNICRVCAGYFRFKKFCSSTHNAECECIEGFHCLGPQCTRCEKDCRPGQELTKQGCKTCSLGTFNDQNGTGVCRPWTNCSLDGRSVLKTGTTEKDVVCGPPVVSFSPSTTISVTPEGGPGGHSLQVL
Method: as §2, §3

B1: PRO1481 (other)
chain: DIQMTQSPASLSASVGDRVTITCQASQSIGTYLAWYQQKPGKPPKLLIYRAFILASGVPSRFSGSGSGTDFTLTISSLQPEDFATYYCQSNFYSDSTTIGPNAFGTGTKVTVLGGGGGSESQLVESGGGLVQPGGSLRLSCAASGFSFSANYYPCWVRQAPGKGLEWIGCIYGGSSDITYDANWTKGRFTISRDNSKNTVYLQMNSLRAEDTAVYFCARSAWYSGWGGDLWGPGTLVTVSSGGGGSGGGGSGGGGSGGGGSFQLTQSPSSLSASVGDRVTITCQASQSISNRLAWYQQKPGKPPKLLIYSASTLASGVPSRFSGSGSGTDFTLTISSLQPEDFATYYCQSTYYGNDGNAFGTGTKVTVLGGGGGSEVQLVESGGGLVQPGGSLRLSCAASGFSFNSDYWIYWVRQAPGKGLEWIASIYGGSSGNTQYASWAQGRFTISRDNSKNTVYLQMNSLRAEDTAVYFCARGYVDYGGATDLWGQGTLVTVSSGGGGSGGGGSIQMTQSPSSLSASVGDRVTITCQSSESVYSNNQLSWYQQKPGQPPKLLIYDASDLASGVPSRFSGSGSGTDFTLTISSLQPEDFATYYCAGGFSSSSDTAFGGGTKLTVLGGGGGSGGGGSGGGGSGGGGSEVQLVESGGGLVQPGGSLRLSCAASGFSLSSNAMGWVRQAPGKGLEYIGIISVGGFTYYASWAKGRFTISRDNSKNTVYLQMNSLRAEDTATYFCARDRHGGDSSGAFYLWGQGTLVTVSS
notes: trispecific scDb-scFv; also called 38-27-A11 sc03 scDb-i/37-20-B03 sc09.1 scDb-o/19-01-H04 sc03 scFv
IC50 (biotinylated human PDL1 [1]): 2.69 ng/mL
rel. IC50 (IC50 avelumab/IC50 test) (biotinylated human PDL1 [1]): 0.84 fold
IC50 (ng/ml) (EC50 in Table 16C), NFkB reporter, HCC827 + IFNg, 24 h, +HSA [2]: 5.51 ng/mL
rel. IC50 (PRO1186/test), 24 h [2]: 0.58 fold
IC50 (biotinylated human PDL1 [3]): 10.1 ng/mL
rel. IC50 (IC50 avelumab/IC50 test) (biotinylated human PDL1 [3]): 1.45 fold
Area under the curve (calculated using PRO885 normalized data), first line (6 h by the order of the upper part) [4]: 292
Area under the curve (calculated using PRO885 normalized data), second line (24 h by the order of the upper part) [4]: 254
EC50 [ng/ml], NF-kB reporter, HCC827 + IFNg, +HSA, 6 h [4]: 7.22 ng/mL
IC10/EC90 ratio, first line (6 h by the order of the upper part) [4]: 23.7
IC10/EC90 ratio, second line (24 h by the order of the upper part) [4]: 41
Maximum NF-kB activation (rel. to PRO1186) [%], first line (6 h by the order of the upper part) [4]: 147%
Maximum NF-kB activation (rel. to PRO1186) [%], second line (24 h by the order of the upper part) [4]: 117%
rel. Area under the curve (AUCsample/AUCPRO1186), first line (6 h by the order of the upper part) [4]: 1.37 fold
rel. Area under the curve (AUCsample/AUCPRO1186), second line (24 h by the order of the upper part) [4]: 1 fold
rel. EC50 (EC50, PRO1186/EC50, sample), NF-kB reporter, 6 h [4]: 1.04 fold
rel. EC50 (EC50, PRO1186/EC50, sample), NF-kB reporter, 24 h [4]: 0.58 fold
rel. IC10/EC90 (ratio of sample/ratio of PRO1186), first line (6 h by the order of the upper part) [4]: 1.71 fold
rel. IC10/EC90 (ratio of sample/ratio of PRO1186), second line (24 h by the order of the upper part) [4]: 5.72 fold
Kd (Fc tagged human CD137): 0.33 nM
koff (Fc tagged human CD137): 0.0002 s⁻¹
kon (Fc tagged human CD137): 630000 M⁻¹ s⁻¹
Kd (Fc tagged human PDL1): 0.0092 nM
kon (Fc tagged human PDL1): 4.7e+06 M⁻¹ s⁻¹
IC50 (ng/ml), NF-AT potency assay, +HSA (human PDL1 on cells): 40.6 ng/mL
rel. IC50 (avelumab/test), +HSA (human PDL1 on cells): 0.92 fold

B2: PRO1125 (bispecific antibody)
chain: DIQMTQSPSSLSASVGDRVTITCQASQSINDYLAWYQQKPGKSPKLLIYKASTLASGVPSRFSGSGSGTDFTLTISSLQPEDFATYYCQQGYIITDIDNVFGTGTKVTVLGGGGGSQVQLQESGPGLVKPSETLSLTCKVSGFSFSNSYWICWIRQPPGKGLEWIGCTFVGSSDSTYYANWAKGRVTISVDSSKNQFSLKLSSVTAADTAVYYCARHPSDAVYGYANNLWGQGTLVTVSSGGGGSGGGGSGGGGSGGGGSIQMTQSPSSLSASVGDRVTITCQASQSINNVLAWYQQKPGKAPKLLIYRASTLASGVPSRFSGSGSGTDFTLTISSLQPEDFATYYCQSSYGNYGDFGTGTKVTVLGGGGGSQVQLQESGPGLVKPSETLSLTCKVSGFSFSSGYDMCWVRQPPGKGLEWIACVVAGSVDITYYASWAKGRVTISVDSSKNQFSLKLSSVTAADTAVYFCARKDAYSDAFNLWGQGTLVTVSS
notes: scDb; also called 38-02-A04 sc01 scDb-i/33-03-G02 sc02 IF scDb-o
Kd (Fc tagged human CD137): 3.7 nM
kon (Fc tagged human CD137): 200000 M⁻¹ s⁻¹
Kd (Fc tagged human PDL1): 0.067 nM
koff (Fc tagged human PDL1): 0.00011 s⁻¹
kon (Fc tagged human PDL1): 1.7e+06 M⁻¹ s⁻¹
Kd [5]: 510 nM
koff [5]: 0.27 s⁻¹
